According to patent publication US20050113303:

Molecular target: [D-Ala^2,Leu^5]enkephalin

B1: recombinant human NEP (neprilysin, expressed from human NEP cDNA in COS-7 cells) (protein)
chain: MESQMDITDINTPKPKKKQRWTPLEISLSVLVLLLTIIAVTMIALYATYDDGICKSSDCIKSAARLIQNMDATTEPCTDFFKYACGGWLKRNVIPETSSRYGNFDILRDELEVVLKDVLQEPKTEDIVAVQKAKALYRSCINESAIDSRGGEPLLKLLPDIYGWPVATENWEQKYGASWTAEKAIAQLNSKYGKKVLINLFVGTDDKNSVNHVIHIDQPRLGLPSRDYYECTGIYKEACTAYVDFMISVARLIRQEERLPIDENQLALEMNKVMELEKEIANATAKPEDRNDPMLLYNKMTLAQIQNNFSLEINGKPFSWLNFTNEIMSTVNISITNEEDVVVYAPEYLTKLKPILTKYSARDLQNLMSWRFIMDLVSSLSRTYKESRNAFRKALYGTTSETATWRRCANYVNGNMENAVGRLYVEAAFAGESKHVVEDLIAQIREVFIQTLDDLTWMDAETKKRAEEKALAIKERIGYPDDIVSNDNKLNNEYLELNYKEDEYFENIIQNLKFSQSKQLKKLREKVDKDEWISGAAVVNAFYSSGRNQIVFPAGILQPPFFSAQQSNSLNYGGIGMVIGHEITHGFDDNGRNFNKDGDLVDWWTQQSASNFKEQSQCMVYQYGNFSWDLAGGQHLNGINTLGENIADNGGLGQAYRAYQNYIKKNGEEKLLPGLDLNHKQLFFLNFAQVWCGTYRPEYAVNSIKTDVHSPGNFRIIGTLQNSAEFSEAFHCRKNSYMNPEKKCRVW
With B1 the “production of Tyr-D-Ala-Gly from the substrate, HPLC” value was “production of Tyr-D-Ala-Gly from the substrate was evident only in NEP-expressing membrane preparations”.

B2: recombinant human PEX protein (full-length, expressed from plasmid pPEX in COS-7 cells) (protein)
chain: MEAETGSSVETGKKANRGTRIALVVFVGGTLVLGTILFLVSQGLLSLQAKQEYCLKPECIEAAAAILSKVNLSVDPCDNFFRFACDGWISNNPIPEDMPSYGVYPWLRHNVDLKLKELLEKSISRRRDTEAIQKAKILYSSCMNEKAIEKADGKPLLHILRHSPFRWPVLESNIGPEGVWSERKFSLLQTLATFRGQYSNSVFIRLYVSPDDKASNEHILKLDQATLSLAVREDYLDNSTEAKSYRDALYKFMVDTAVLLGANSSRAEHDMKSVLRLEIKIAEIMIPHENRTSEAMYNKMNISELSAMIPQFDWLGYIKKVIDTRLYPHLKDISPSENVVVRVPQYFKDLFRILGSERKKTIDNYLVWRMVYSRIPNLSRRFQYRWLEFSRVIQGTTTLLPQRDKCVNFIESALPYVVGKMFVDVYFQEDKKEMMEELVEGVRWAFIDMLEKENEWMDAGTKRKAKEKARAVLAKVGYPEFIMNDTHVNEDLKAIKFSEADYFGNVLQTRKYLAQSDFFWLRKAVPKTEWFTNPTTVNAFYSASTNQIRFPAGELQKPFFWGTEYPRSLSYGAIGVIVGHEFTHGFDNNGRKYDKNGNLDPWWSTESEEKFKEKTKCMINQYSNYYWKKAGLNVKGKRTLGENIADNGGLREAFRAYRKWINDRRQGLEEPLLPGITFTNNQLFFLSYAHVRCNSYRPEAAREQVQIGAHSPPQFRVNGAISNFEEFQKAFNCPPNSTMNRGMDSCRLW
B2 was tested, and the “production of Tyr-D-Ala-Gly from the substrate, HPLC” value was “production of Tyr-D-Ala-Gly from the substrate was evident only in NEP-expressing membrane preparations”.
